Here are results for 1 molecule from patent publication US20050118611, “Thioaptamers enable discovery of physiological pathways and new therapeutic strategies” (Board Of Regents, The University of Texas System, published 2005).

This series addresses NF-κB p65 (RelA) homodimer (UniProt Q04206 Q04206:1-551). As to the kind of experiment: competition; inhibition/binding similar to unsubstituted aptamer; 32P IgκB competition. As to conditions: protein: NAME; chain copies: 2 (stated). Here is the method: As the substitutions of dithiophosphate were increased, binding by the [S₂]-ODN oligonucleotide increased dramatically. For example, in a standard competitive binding assay, ³²P IgκB promoter element ODN is incubated with recombinant p65 and varying amounts of XBY aptamer competitor. The relative binding ability of the unlabeled ODNs is determined by the concentration needed to effectively compete with the standard labeled ODN. XBY1 through 6 correspond to CK-14 aptamers with 1 through 6 dithiophosphate substitutions, respectively. The present inventors, according to an embodiment of this invention, developed an oligonucleotide containing six dithioate linkages on the two strands, termed XBY-6. Unlike the fully substituted [S]-ODN CK-14, the XBY-6 hybrid backbone [S₂]-ODN aptamers bound more tightly to p50/p50 (5-fold) than to the p65 homodimer.

NF-κB p65 (RelA) homodimer, sequence (Q04206 whole entry, one chain of several): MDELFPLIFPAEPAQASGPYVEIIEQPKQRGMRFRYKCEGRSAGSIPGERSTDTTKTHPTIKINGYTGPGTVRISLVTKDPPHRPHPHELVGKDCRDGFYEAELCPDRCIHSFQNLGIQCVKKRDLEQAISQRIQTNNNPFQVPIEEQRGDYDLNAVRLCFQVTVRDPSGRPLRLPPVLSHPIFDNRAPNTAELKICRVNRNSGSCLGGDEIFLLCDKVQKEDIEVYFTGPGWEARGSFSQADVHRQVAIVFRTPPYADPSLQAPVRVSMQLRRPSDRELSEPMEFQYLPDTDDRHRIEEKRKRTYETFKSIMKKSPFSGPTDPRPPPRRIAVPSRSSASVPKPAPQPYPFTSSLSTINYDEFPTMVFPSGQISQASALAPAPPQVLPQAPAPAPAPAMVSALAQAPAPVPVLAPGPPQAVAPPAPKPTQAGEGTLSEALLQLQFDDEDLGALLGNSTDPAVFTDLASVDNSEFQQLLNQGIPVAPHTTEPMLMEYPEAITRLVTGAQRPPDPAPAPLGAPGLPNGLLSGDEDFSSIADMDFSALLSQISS

B1: CK-14 with one or two dithioate linkages (XBY1, XBY2) (dsDNA)
DNA 1: CCAGGAGATTCCAC
DNA 2: GTGGAATCTCCTGG
modifications: 1 or 2 phosphorodithioates, positions not given
With B1, the binding signal was roughly 1 fold vs unsubstituted.
